Experimental data published in the supplement of paper PMC9170038.

System: K4 kissing-loop RNA reporter
Assay: apparent KD of K4 kissing-loop reporter; higher = weaker reporter binding
Conditions: Eterna round: R107
Procedure: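 RNA-MaP round R107: designed RNA switches with theophylline, tryptophan, arginine or FMN aptamers are transcribed on-chip within common flanks. They are titrated with a labelled K4 kissing-loop RNA reporter in RNA-MaP buffer (100 mM Tris pH 7.5, 80 mM KCl, 4 mM MgCl2), without ligand or with the indicated ligand. Median apparent KD per design.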

[1] = input ligand: theophylline 20 uM
[2] = input ligand: tryptophan 2.4 mM
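Note: bound reporter read as fluorescence of individual clusters on recovered sequencing chips by microscopy, with normalized cluster intensities fitted with a binding model.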

AAAAGAAAGUCGGCCGCCACUCAACGCAGUGAUGUUGCAAGACAGAAGACCAGUGAUGUUGGCCAGAGGACCGGGACAAAAGGCC [Same State Typtophan B GF 4]
apparent KD of K4 kissing-loop reporter (input ligand: FMN 200 uM): 591 nM
apparent KD of K4 kissing-loop reporter (input ligand: arginine 13.2 mM): 945 nM
apparent KD of K4 kissing-loop reporter (input ligand: none): 842 nM
apparent KD of K4 kissing-loop reporter [1]: 435 nM
apparent KD of K4 kissing-loop reporter [2]: 464 nM

AAAAGCAGAAAGACGCAUUAAAGAACCGAAGGAGCGCGGAAUUACGCAGGUAGGUCGCGGGAUAAGCGAGUGAUGUUCGCGAAAG [Arginine A Same State; Euphoria Solution]
apparent KD of K4 kissing-loop reporter (input ligand: FMN 200 uM): 60.7 nM
apparent KD of K4 kissing-loop reporter (input ligand: arginine 13.2 mM): 105 nM
apparent KD of K4 kissing-loop reporter (input ligand: none): 72.1 nM
apparent KD of K4 kissing-loop reporter [1]: 89.5 nM
apparent KD of K4 kissing-loop reporter [2]: 53.6 nM

AAAAUAAACCAGUGAUGUUGGUGUCCAGAUACCAGCGAUAAAAUUCGCCCUUGGCAGCUGUGGACGUACAAAAUAAGUACGUCCU [MatMod 3 - Jieux - Same State - Theophylline A]
apparent KD of K4 kissing-loop reporter (input ligand: FMN 200 uM): 734 nM
apparent KD of K4 kissing-loop reporter (input ligand: arginine 13.2 mM): 555 nM
apparent KD of K4 kissing-loop reporter (input ligand: none): 837 nM
apparent KD of K4 kissing-loop reporter [1]: 525 nM
apparent KD of K4 kissing-loop reporter [2]: 674 nM

AAAAUAAACCAGUGAUGUUGGUGUCCAGAUACCAGCGGUAAAAUCCGCCCUUGGCAGCUGUGGACGUACAAAAUAAGUACGUCCU [MatMod 4 - Jieux - Same State - Theophylline A]
apparent KD of K4 kissing-loop reporter (input ligand: FMN 200 uM): 430 nM
apparent KD of K4 kissing-loop reporter (input ligand: arginine 13.2 mM): 321 nM
apparent KD of K4 kissing-loop reporter (input ligand: none): 463 nM
apparent KD of K4 kissing-loop reporter [1]: 286 nM
apparent KD of K4 kissing-loop reporter [2]: 358 nM

AAAAUAAACCAGUGAUGUUGGUGUCUAGAUACCAGCGACAAAAGUCGCCCUUGGCAGCUACGGACGUACAAAAUAAGUACGUCCU [MatMod 9 - Jieux - Same State - Theophylline A]
apparent KD of K4 kissing-loop reporter (input ligand: FMN 200 uM): 468 nM
apparent KD of K4 kissing-loop reporter (input ligand: arginine 13.2 mM): 353 nM
apparent KD of K4 kissing-loop reporter (input ligand: none): 472 nM
apparent KD of K4 kissing-loop reporter [1]: 481 nM
apparent KD of K4 kissing-loop reporter [2]: 405 nM

AAAAUAAUCCAGUGAUGUUGGUAUUCAGAUACCAGCGACGAAAGUCGCCCUUGGCAGCUGUGGACGUACAAAAUAAGUACGUCCU
apparent KD of K4 kissing-loop reporter (input ligand: FMN 200 uM): 967 nM
apparent KD of K4 kissing-loop reporter (input ligand: arginine 13.2 mM): 657 nM
apparent KD of K4 kissing-loop reporter (input ligand: none): 1060 nM
apparent KD of K4 kissing-loop reporter [1]: 944 nM
apparent KD of K4 kissing-loop reporter [2]: 660 nM

AAAAUUGCGGUCGAUAGAACUUUUUGCUUACGAGGACCGGUACGGCCGCCACUCGAGUCAAGUGAUGUUUGAUUUUCUAUUAUUA [JR_ExcTryptoA_Sub014]
apparent KD of K4 kissing-loop reporter (input ligand: FMN 200 uM): 112 nM
apparent KD of K4 kissing-loop reporter (input ligand: arginine 13.2 mM): 166 nM
apparent KD of K4 kissing-loop reporter (input ligand: none): 141 nM
apparent KD of K4 kissing-loop reporter [1]: 176 nM
apparent KD of K4 kissing-loop reporter [2]: 98.5 nM

AAACUCAGUGAUGUUGAGUGGGAGCGGGAUACCAGAUCGCCCAUCAUCCCUUGGCAGCCCGAGCGUCAGAAUACAUUUCAUUUGC [theeternabot_sameState_KL_Theo_A_6]
apparent KD of K4 kissing-loop reporter (input ligand: FMN 200 uM): 339 nM
apparent KD of K4 kissing-loop reporter (input ligand: arginine 13.2 mM): 349 nM
apparent KD of K4 kissing-loop reporter (input ligand: none): 349 nM
apparent KD of K4 kissing-loop reporter [1]: 385 nM
apparent KD of K4 kissing-loop reporter [2]: 263 nM

AAAGACUGACUGCAAUUAGCAGUCAGUCAACGAGGACCGGUACGGCCGCCACUCGGGUCCUAGAGUGAUGUUCUAAUAAUAUAAA [AK1.2 SS Tryptophan A]
apparent KD of K4 kissing-loop reporter (input ligand: FMN 200 uM): 374 nM
apparent KD of K4 kissing-loop reporter (input ligand: arginine 13.2 mM): 495 nM
apparent KD of K4 kissing-loop reporter (input ligand: none): 319 nM
apparent KD of K4 kissing-loop reporter [1]: 490 nM
apparent KD of K4 kissing-loop reporter [2]: 207 nM

AAAGAUGCGUCGGCCGCCACUGUGAUCUACGAAAGUAGUAUGUAGAUGCAGUGAUGUUGCAUUUUCAGGACCGGGACGUAAGAUG [3rd]
apparent KD of K4 kissing-loop reporter (input ligand: FMN 200 uM): 447 nM
apparent KD of K4 kissing-loop reporter (input ligand: arginine 13.2 mM): 362 nM
apparent KD of K4 kissing-loop reporter (input ligand: none): 321 nM
apparent KD of K4 kissing-loop reporter [1]: 496 nM
apparent KD of K4 kissing-loop reporter [2]: 211 nM

AAAGGAUCAGAGAGUGAUGUUCUCUAAUAACGAGGACCGGUACGGCCGCCACUCGAAUAGAUCCAAGUCCUACGAAAAGUAGGAC [Omei inspired 8]
apparent KD of K4 kissing-loop reporter (input ligand: FMN 200 uM): 274 nM
apparent KD of K4 kissing-loop reporter (input ligand: arginine 13.2 mM): 217 nM
apparent KD of K4 kissing-loop reporter (input ligand: none): 316 nM
apparent KD of K4 kissing-loop reporter [1]: 308 nM
apparent KD of K4 kissing-loop reporter [2]: 210 nM

AAAGGCAAAGCCCGAGUGAUGUUCGACGAUACCAGCCUCGAUAGAGGCCCUUGGCAGCGUAAAUGAUCAUGAAGCCAAGGAAUAA [whbob_Ex_Theo_A_th67]
apparent KD of K4 kissing-loop reporter (input ligand: FMN 200 uM): 352 nM
apparent KD of K4 kissing-loop reporter (input ligand: arginine 13.2 mM): 302 nM
apparent KD of K4 kissing-loop reporter (input ligand: none): 352 nM
apparent KD of K4 kissing-loop reporter [1]: 260 nM
apparent KD of K4 kissing-loop reporter [2]: 313 nM

AAAGGCAUAGCCCGAGUGAUGUUCGACGAUACCAGCCUCGAUAGAGGCCCUUGGCAGCGUAAAUGAUCAUGAAGCCAAGGAAUAA [whbob_Ex_Theo_A_th68]
apparent KD of K4 kissing-loop reporter (input ligand: FMN 200 uM): 340 nM
apparent KD of K4 kissing-loop reporter (input ligand: arginine 13.2 mM): 303 nM
apparent KD of K4 kissing-loop reporter (input ligand: none): 391 nM
apparent KD of K4 kissing-loop reporter [1]: 816 nM
apparent KD of K4 kissing-loop reporter [2]: 422 nM

AAAGUGUCAGCACGAGUGAUGUUCGACGAUACCAGCCUCGAUAGAGGCCCUUGGCAGCGUAAAAGUCAAGGGCUGGCACAUAAAA [#SwitchBubble 5 #K4Early]
apparent KD of K4 kissing-loop reporter (input ligand: FMN 200 uM): 789 nM
apparent KD of K4 kissing-loop reporter (input ligand: arginine 13.2 mM): 751 nM
apparent KD of K4 kissing-loop reporter (input ligand: none): 1300 nM
apparent KD of K4 kissing-loop reporter [1]: 494 nM
apparent KD of K4 kissing-loop reporter [2]: 1440 nM

AAAGUUGAUGAGUUGGGUAUGUGUUCCGAAGGAGCGAGAAUUAUCUCAGGUAGGUCGCGGAAGAUGAGUGAUGUUCAUCUAUAAA [KL-XArg-A8 #analogue]
apparent KD of K4 kissing-loop reporter (input ligand: FMN 200 uM): 147 nM
apparent KD of K4 kissing-loop reporter (input ligand: arginine 13.2 mM): 137 nM
apparent KD of K4 kissing-loop reporter (input ligand: none): 162 nM
apparent KD of K4 kissing-loop reporter [1]: 144 nM
apparent KD of K4 kissing-loop reporter [2]: 127 nM

AAAUAAAAGGCGGCCGCCACUGAACGCCUCCGCGUGGGUAUAUAGUGAUGUUAUAUGGCCGCCUUCAGGACCGGGCCAAAUAAAA [AstrosSSTryB#1]
apparent KD of K4 kissing-loop reporter (input ligand: FMN 200 uM): 458 nM
apparent KD of K4 kissing-loop reporter (input ligand: arginine 13.2 mM): 220 nM
apparent KD of K4 kissing-loop reporter (input ligand: none): 339 nM
apparent KD of K4 kissing-loop reporter [1]: 274 nM
apparent KD of K4 kissing-loop reporter [2]: 373 nM

AAAUAAAGCAGUCACCCAGUGAUGUUGGAAGGAGCGUGCGAAAGCACAGGUAGGUCGCCGAUAGGACAAAGUCCAAGUGGCUGCA [#SwitchBubble 30 #K4Early]
apparent KD of K4 kissing-loop reporter (input ligand: FMN 200 uM): 625 nM
apparent KD of K4 kissing-loop reporter (input ligand: arginine 13.2 mM): 437 nM
apparent KD of K4 kissing-loop reporter (input ligand: none): 487 nM
apparent KD of K4 kissing-loop reporter [1]: 297 nM
apparent KD of K4 kissing-loop reporter [2]: 318 nM

AAAUCUUUCAGAAGGAGCGUGGAUUAUUCUUAUAUAUUUAUUACGAGUGAUGUUCGUAAUUCACAGGUAGGUCGCUGAUCAAUAA [JR_ExcArginiB_Sub006]
apparent KD of K4 kissing-loop reporter (input ligand: FMN 200 uM): 87.5 nM
apparent KD of K4 kissing-loop reporter (input ligand: arginine 13.2 mM): 105 nM
apparent KD of K4 kissing-loop reporter (input ligand: none): 91.1 nM
apparent KD of K4 kissing-loop reporter [1]: 109 nM
apparent KD of K4 kissing-loop reporter [2]: 89.8 nM

AAAUUUGCUCAUGAUACCAGCCAGUGAUGUUGGUUGGUCCACCGUGUCCGAACAUUAAGCGGCCCUUGGCAGCAUGAUGCGCGUA [Ininveaen]
apparent KD of K4 kissing-loop reporter (input ligand: FMN 200 uM): 129 nM
apparent KD of K4 kissing-loop reporter (input ligand: arginine 13.2 mM): 105 nM
apparent KD of K4 kissing-loop reporter (input ligand: none): 116 nM
apparent KD of K4 kissing-loop reporter [1]: 143 nM
apparent KD of K4 kissing-loop reporter [2]: 112 nM

AAAUUUUCAAGUGAUACCAGACAUUUUUAUUUCUUUAUUUAUGCUAAGUGAUGUUUAGCAGUCCCUUGGCAGCACUAUUUAAUUA [JR_Nu_SSTheophyB_Sub030]
apparent KD of K4 kissing-loop reporter (input ligand: FMN 200 uM): 127 nM
apparent KD of K4 kissing-loop reporter (input ligand: arginine 13.2 mM): 174 nM
apparent KD of K4 kissing-loop reporter (input ligand: none): 141 nM
apparent KD of K4 kissing-loop reporter [1]: 231 nM
apparent KD of K4 kissing-loop reporter [2]: 144 nM

AACACUCAGAGAGUGAUGUUCUCUAAUAAACGAGGACCGGUACGGCCGCCACUCGAAUAAGAGUGAGUCCUACGAAAAGUAGGAC [Omei inspired 5 #OpenEnded]
apparent KD of K4 kissing-loop reporter (input ligand: FMN 200 uM): 790 nM
apparent KD of K4 kissing-loop reporter (input ligand: arginine 13.2 mM): 726 nM
apparent KD of K4 kissing-loop reporter (input ligand: none): 1050 nM
apparent KD of K4 kissing-loop reporter [1]: 1120 nM
apparent KD of K4 kissing-loop reporter [2]: 224 nM
